Data published in patent US20260242735A1 (UNIVERSIT T BASEL, published 2026).

B1: Refmab #1 (antibody, V domains shown)
VH: EVQLVQSGAEVKKPGSSVKVSCKASGYTITDSNIHWVRQAPGQSLEWIGYIYPYNGGTDYNQKFKNRATLTVDNPTNTAYMELSSLRSEDTAFYYCVNGNPWLAYWGQGTLVTVSS
VL: DIQLTQSPSTLSASVGDRVTITCRASESLDNYGIRFLTWFQQKPGKAPKLLMYAASNQGSGVPSRFSGSGSGTEFTLTISSLQPDDFATYYCQQTKEVPWSFGQGTKVEVK
notes: The alanine scan used IgG or Fab; also called hP67.6
B2: Refmab #1 (antibody, human IgG1, V domains shown)
VH: EVQLVQSGAEVKKPGSSVKVSCKASGYTITDSNIHWVRQAPGQSLEWIGYIYPYNGGTDYNQKFKNRATLTVDNPTNTAYMELSSLRSEDTAFYYCVNGNPWLAYWGQGTLVTVSS
VL: DIQLTQSPSTLSASVGDRVTITCRASESLDNYGIRFLTWFQQKPGKAPKLLMYAASNQGSGVPSRFSGSGSGTEFTLTISSLQPDDFATYYCQQTKEVPWSFGQGTKVEVK
notes: Tested in IgG format; human IgG1 (Absolute Antibody hP67.6, Cat. No. Ab00283-10.0); also called hP67.6
B3: Refmab #4 (antibody, human IgG1, V domains shown)
VH: QVQLVQSGAEVKKPGESVKVSCKASGYTFTNYGMNWVKQAPGQGLEWMGWINTYTGEPTYADKFQGRVTMTTDTSTSTAYMEIRNLGGDDTAVYYCARWSWSDGYYVYFDYWGQGTSVTVSS
VL: DIVMTQSPDSLTVSLGERTTINCKSSQSVLDSSTNKNSLAWYQQKPGQPPKLLLSWASTRESGIPDRFSGSGSGTDFTLTIDSPQPEDSATYYCQQSAHFPITFGQGTRLEIK
notes: Tested in IgG format; human IgG1 Fc silent (PG-LALA)

Assays:
human CD33 N100A = human CD33 N100A (human, UniProt P20138 18-364); experiment: flow cytometry on HEK293-T, alanine scan
Method: (§1) An alanine scan on human CD33 was performed to the determine the residues on CD33 that are involved in binding to the antibodies investigated. […] Briefly, a mutation library of CD33 was created by high-throughput, site-directed mutagenesis. Each residue was individually mutated to alanine, with alanine codons mutated to serine. The mutant library was arrayed in 384-well microplates and transiently transfected into HEK293-T. Following transfection, cells were incubated with the indicated antibodies (IgG or Fab) at concentrations pre-determined using an independent immunofluorescence titration curve on wild type CD33. […] Binding of each antibody to each mutant clone was determined in duplicates. For each point, background fluorescence was subtracted from the raw data, which were then normalized to antibody reactivity with wild type CD33.
(§2) Critical residues for antibody binding (outlined in dark grey) were residues whose mutations led to a binding of the test Abs of less than 20%. Additional secondary residues (outlined in light grey) were identified that led to a binding of the test Abs of between 20 and 40% as compared to the wild type CD33.

human CD33 E154A = human CD33 E154A (human, UniProt P20138 18-364); experiment: flow cytometry on HEK293-T, alanine scan
Method: as §1, §2

human CD33 P145A = human CD33 P145A (human, UniProt P20138 18-364); experiment: flow cytometry on HEK293-T, alanine scan
Method: as §1, §2

human CD33 G94A = human CD33 G94A (human, UniProt P20138 18-364); experiment: flow cytometry on HEK293-T, alanine scan
Method: as §1, §2

human CD33 G156A = human CD33 G156A (human, UniProt P20138 18-364); experiment: flow cytometry on HEK293-T, alanine scan
Method: as §1, §2

human CD33 M120A = human CD33 M120A (human, UniProt P20138 18-364); experiment: flow cytometry on HEK293-T, alanine scan
Method: as §1, §2

human CD33 P132A = human CD33 P132A (human, UniProt P20138 18-364); experiment: flow cytometry on HEK293-T, alanine scan
Method: as §1, §2

human CD33 R98A = human CD33 R98A (human, UniProt P20138 18-364); experiment: flow cytometry on HEK293-T, alanine scan
Method: as §1, §2

human CD33 L153A = human CD33 L153A (human, UniProt P20138 18-364); experiment: flow cytometry on HEK293-T, alanine scan
Method: as §1, §2

human CD33 C101A = human CD33 C101A (human, UniProt P20138 18-364); experiment: flow cytometry on HEK293-T, alanine scan
Method: as §1, §2

human CD33 S131A = human CD33 S131A (human, UniProt P20138 18-364); experiment: flow cytometry on HEK293-T, alanine scan
Method: as §1, §2

human CD33 K146A = human CD33 K146A (human, UniProt P20138 18-364); experiment: flow cytometry on HEK293-T, alanine scan
Method: as §1, §2

human CD33 variant Y50D = human CD33 variant Y50D (human, UniProt P20138 18-364); experiment: flow cytometry, IgG on cells expressing the mutant
Method: as §1
(§3) Antibodies were screened for binding to the human CD33 variants in IgG format. […] For each mutation, background fluorescence was subtracted from the raw data, which were then normalized to antibody reactivity with wild-type CD33.

human CD33 variant P48I = human CD33 variant P48I (human, UniProt P20138 18-364); experiment: flow cytometry, IgG on cells expressing the mutant
Method: as §1, §3

human CD33 variant Y49G = human CD33 variant Y49G (human, UniProt P20138 18-364); experiment: flow cytometry, IgG on cells expressing the mutant
Method: as §1, §3

human CD33 variant I47F = human CD33 variant I47F (human, UniProt P20138 18-364); experiment: flow cytometry, IgG on cells expressing the mutant
Method: as §1, §3

human CD33 variant P48D = human CD33 variant P48D (human, UniProt P20138 18-364); experiment: flow cytometry, IgG on cells expressing the mutant
Method: as §1, §3

human CD33 variant I47R = human CD33 variant I47R (human, UniProt P20138 18-364); experiment: flow cytometry, IgG on cells expressing the mutant
Method: as §1, §3

human CD33 variant R122I = human CD33 variant R122I (human, UniProt P20138 18-364); experiment: flow cytometry, IgG on cells expressing the mutant
Method: as §1, §3

human CD33 variant I47L = human CD33 variant I47L (human, UniProt P20138 18-364); experiment: flow cytometry, IgG on cells expressing the mutant
Method: as §1, §3

human CD33 variant K52D = human CD33 variant K52D (human, UniProt P20138 18-364); experiment: flow cytometry, IgG on cells expressing the mutant
Method: as §1, §3

human CD33 variant I47Q = human CD33 variant I47Q (human, UniProt P20138 18-364); experiment: flow cytometry, IgG on cells expressing the mutant
Method: as §1, §3

human CD33 variant P48Q = human CD33 variant P48Q (human, UniProt P20138 18-364); experiment: flow cytometry, IgG on cells expressing the mutant
Method: as §1, §3

human CD33 variant Y49P = human CD33 variant Y49P (human, UniProt P20138 18-364); experiment: flow cytometry, IgG on cells expressing the mutant
Method: as §1, §3

human CD33 variant V56R = human CD33 variant V56R (human, UniProt P20138 18-364); experiment: flow cytometry, IgG on cells expressing the mutant
Method: as §1, §3

human CD33 variant R122G = human CD33 variant R122G (human, UniProt P20138 18-364); experiment: flow cytometry, IgG on cells expressing the mutant
Method: as §1, §3

human CD33 variant P48T = human CD33 variant P48T (human, UniProt P20138 18-364); experiment: flow cytometry, IgG on cells expressing the mutant
Method: as §1, §3

human CD33 variant P48V = human CD33 variant P48V (human, UniProt P20138 18-364); experiment: flow cytometry, IgG on cells expressing the mutant
Method: as §1, §3

human CD33 variant Y50L = human CD33 variant Y50L (human, UniProt P20138 18-364); experiment: flow cytometry, IgG on cells expressing the mutant
Method: as §1, §3

human CD33 variant K52L = human CD33 variant K52L (human, UniProt P20138 18-364); experiment: flow cytometry, IgG on cells expressing the mutant
Method: as §1, §3

human CD33 variant Y49Q = human CD33 variant Y49Q (human, UniProt P20138 18-364); experiment: flow cytometry, IgG on cells expressing the mutant
Method: as §1, §3

human CD33 variant R122F = human CD33 variant R122F (human, UniProt P20138 18-364); experiment: flow cytometry, IgG on cells expressing the mutant
Method: as §1, §3

human CD33 variant P48L = human CD33 variant P48L (human, UniProt P20138 18-364); experiment: flow cytometry, IgG on cells expressing the mutant
Method: as §1, §3

human CD33 variant Y49C = human CD33 variant Y49C (human, UniProt P20138 18-364); experiment: flow cytometry, IgG on cells expressing the mutant
Method: as §1, §3

human CD33 variant R122T = human CD33 variant R122T (human, UniProt P20138 18-364); experiment: flow cytometry, IgG on cells expressing the mutant
Method: as §1, §3

human CD33 variant Y49S = human CD33 variant Y49S (human, UniProt P20138 18-364); experiment: flow cytometry, IgG on cells expressing the mutant
Method: as §1, §3

Sequence of human CD33 variant Y50L (P20138 18-364 Y50L limits assumed): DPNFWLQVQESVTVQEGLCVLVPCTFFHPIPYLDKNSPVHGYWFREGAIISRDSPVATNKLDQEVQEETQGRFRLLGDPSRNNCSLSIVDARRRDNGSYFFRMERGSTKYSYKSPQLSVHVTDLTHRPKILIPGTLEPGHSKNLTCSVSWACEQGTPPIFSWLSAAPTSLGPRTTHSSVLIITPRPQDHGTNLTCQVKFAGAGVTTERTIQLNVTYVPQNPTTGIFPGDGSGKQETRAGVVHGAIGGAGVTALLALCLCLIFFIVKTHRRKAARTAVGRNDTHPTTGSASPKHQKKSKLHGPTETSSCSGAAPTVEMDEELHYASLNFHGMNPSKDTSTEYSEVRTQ
Sequence of human CD33 variant I47Q (P20138 18-364 I47Q limits assumed): as the sequence (P20138 18-364 Y50L limits assumed) above, with I30Q, L33Y counted along it
Sequence of human CD33 variant P48V (P20138 18-364 P48V limits assumed): as the sequence (P20138 18-364 Y50L limits assumed) above, with P31V, L33Y counted along it
Sequence of human CD33 variant Y50D (P20138 18-364 Y50D limits assumed): as the sequence (P20138 18-364 Y50L limits assumed) above, with L33D counted along it
Sequence of human CD33 variant P48I (P20138 18-364 P48I limits assumed): as the sequence (P20138 18-364 Y50L limits assumed) above, with P31I, L33Y counted along it
Sequence of human CD33 variant P48L (P20138 18-364 P48L limits assumed): as the sequence (P20138 18-364 Y50L limits assumed) above, with P31L, L33Y counted along it
Sequence of human CD33 variant R122I (P20138 18-364 R122I limits assumed): as the sequence (P20138 18-364 Y50L limits assumed) above, with L33Y, R105I counted along it
Sequence of human CD33 variant R122G (P20138 18-364 R122G limits assumed): as the sequence (P20138 18-364 Y50L limits assumed) above, with L33Y, R105G counted along it
Sequence of human CD33 variant I47L (P20138 18-364 I47L limits assumed): as the sequence (P20138 18-364 Y50L limits assumed) above, with I30L, L33Y counted along it
Sequence of human CD33 variant K52D (P20138 18-364 K52D limits assumed): as the sequence (P20138 18-364 Y50L limits assumed) above, with L33Y, K35D counted along it
Sequence of human CD33 variant P48Q (P20138 18-364 P48Q limits assumed): as the sequence (P20138 18-364 Y50L limits assumed) above, with P31Q, L33Y counted along it
Sequence of human CD33 variant Y49P (P20138 18-364 Y49P limits assumed): as the sequence (P20138 18-364 Y50L limits assumed) above, with Y32P, L33Y counted along it
Sequence of human CD33 variant V56R (P20138 18-364 V56R limits assumed): as the sequence (P20138 18-364 Y50L limits assumed) above, with L33Y, V39R counted along it
Sequence of human CD33 variant R122T (P20138 18-364 R122T limits assumed): as the sequence (P20138 18-364 Y50L limits assumed) above, with L33Y, R105T counted along it

Binder | Mean % WT Binding (human CD33 variant Y50D) | Mean % WT Binding (human CD33 variant P48I) | Mean % WT Binding (human CD33 variant Y49G) | Mean % WT Binding (human CD33 variant I47F) | Mean % WT Binding (human CD33 variant P48D) | Mean % WT Binding (human CD33 variant I47R) | Mean % WT Binding (human CD33 variant R122I) | Mean % WT Binding (human CD33 variant I47L) | Mean % WT Binding (human CD33 variant K52D) | Mean % WT Binding (human CD33 variant I47Q) | Mean % WT Binding (human CD33 variant P48Q) | Mean % WT Binding (human CD33 variant Y49P) | Mean % WT Binding (human CD33 variant V56R) | Mean % WT Binding (human CD33 variant R122G) | Mean % WT Binding (human CD33 variant P48T) | Mean % WT Binding (human CD33 variant P48V) | Mean % WT Binding (human CD33 variant Y50L) | Mean % WT Binding (human CD33 variant K52L) | Mean % WT Binding (human CD33 variant Y49Q) | Mean % WT Binding (human CD33 variant R122F) | further results
B1 |  |  |  |  |  |  |  |  |  |  |  |  |  |  |  |  |  |  |  |  | Mean % WT Binding (human CD33 N100A): 94.8 % WT binding; Mean % WT Binding (human CD33 E154A): 88 % WT binding; Mean % WT Binding (human CD33 P145A): 89.3 % WT binding; Mean % WT Binding (human CD33 G94A): 88.3 % WT binding; Mean % WT Binding (human CD33 G156A): 83.4 % WT binding; Mean % WT Binding (human CD33 M120A): 79.8 % WT binding; Mean % WT Binding (human CD33 P132A): 107 % WT binding; Mean % WT Binding (human CD33 R98A): 99.1 % WT binding; Mean % WT Binding (human CD33 L153A): 75.7 % WT binding; Mean % WT Binding (human CD33 C101A): 1.1 % WT binding; Mean % WT Binding (human CD33 S131A): 85.9 % WT binding; Mean % WT Binding (human CD33 K146A): 78.5 % WT binding
B2 | 115 % of WT | 107 % of WT | 107 % of WT | 101 % of WT | 109 % of WT | 96.1 % of WT | 110 % of WT | 112 % of WT | 101 % of WT | 104 % of WT | 120 % of WT | 92.5 % of WT | 98.5 % of WT | 109 % of WT | 106 % of WT | 121 % of WT | 109 % of WT | 97.6 % of WT | 105 % of WT | 110 % of WT | Mean % WT Binding (human CD33 variant P48L): 102 % of WT; Mean % WT Binding (human CD33 variant Y49C): 67.2 % of WT; Mean % WT Binding (human CD33 variant R122T): 113 % of WT; Mean % WT Binding (human CD33 variant Y49S): 107 % of WT
B3 | 0.9 % of WT | 31.9 % of WT | 54.9 % of WT | 102 % of WT | 2 % of WT | 66.2 % of WT | 85.8 % of WT | 88.5 % of WT | 9.4 % of WT | 80.1 % of WT | 2.1 % of WT | 1.2 % of WT | 99.4 % of WT | 91.3 % of WT | 11.7 % of WT | 88.5 % of WT | 1.9 % of WT | 88.1 % of WT | 91.9 % of WT | 58.1 % of WT | Mean % WT Binding (human CD33 variant P48L): 1 % of WT; Mean % WT Binding (human CD33 variant Y49C): 0.5 % of WT; Mean % WT Binding (human CD33 variant R122T): 93.2 % of WT
